Measured values as given in PMC9241813, “SGK1, a Serine/Threonine Kinase, Inhibits Prototype Foamy Virus Replication” (Microbiology Spectrum, 2022).

Molecular target: the molecule itself
Test: cross-linking; HEK293T cells transfected with Flag-Tas and empty vector or HA-SGK1; lysate supernatant incubated with cross-linking buffer at room temperature for 30 min; Western blot

B1: prototype foamy virus Tas protein (Flag-Tas) (natural protein)
chain: MDSYEKEESVASTSGIQDLQTLSELVGPENAGEGELTIAEEPEENPRRPRRYTKREVKCVSYHAYKEIEDKHPQHIKLQDWIPTPEEMSKSLCKRLILCGLYSAEKASEILRMPFTVSWEQSDTDPDCFIVSYTCIFCDAVIHDPMPIRWDPEVGIWVKYKPLRGIVGSAVFIMHKHQRNCSLVKPSTSCSEGPKPRPRHDPVLRCDMFEKHHKPRQKRPRRRSIDNESCASSSDTMANEPGSLCTNPLWNPGPLLSGLLEESSNLPNLEVHMSGGPFWEEVYGDSILGPPSGSGEHSVL
notes: also called PFV Tas; Myc-Tas; source: HEK293T, transfected, in lysate
- stoichiometry N: 2
